Measured values as given in patent WO2005107784A1 (dated 2005).

T1: human Mpl (full length, expressed on BaF3 cells) (human, UniProt P40238 26-635)
T1 sequence: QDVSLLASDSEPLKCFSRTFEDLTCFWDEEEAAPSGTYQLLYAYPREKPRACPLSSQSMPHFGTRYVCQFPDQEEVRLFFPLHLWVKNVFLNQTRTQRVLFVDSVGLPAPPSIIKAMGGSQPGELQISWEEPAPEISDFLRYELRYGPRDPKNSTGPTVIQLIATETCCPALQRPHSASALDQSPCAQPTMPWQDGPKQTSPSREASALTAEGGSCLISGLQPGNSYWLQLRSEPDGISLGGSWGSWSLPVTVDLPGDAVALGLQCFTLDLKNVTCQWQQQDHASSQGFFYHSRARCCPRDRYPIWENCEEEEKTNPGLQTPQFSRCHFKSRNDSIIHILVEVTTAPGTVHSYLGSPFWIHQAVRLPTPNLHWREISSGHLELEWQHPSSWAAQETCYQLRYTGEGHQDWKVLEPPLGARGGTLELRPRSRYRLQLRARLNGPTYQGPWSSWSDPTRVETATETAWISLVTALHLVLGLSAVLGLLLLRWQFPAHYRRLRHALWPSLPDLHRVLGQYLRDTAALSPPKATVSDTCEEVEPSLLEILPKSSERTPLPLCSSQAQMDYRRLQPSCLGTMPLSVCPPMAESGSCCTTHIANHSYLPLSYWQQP


Columns and labels:
[1] = biological target: human Mpl (full length, expressed on BaF3 cells) (human) (UniProt P40238); assay: cell-based or functional assay
[2] = biological target: T1, human Mpl (full length, expressed on …); assay: cell-based or functional assay

BaF-human Mpl EC50 (cell proliferation, WST-8) [1] | TPO-like agonist activity, BaF-human Mpl EC50 (cell proliferation, WST-8) [2] | Molecule
76 pM |  | recombinant human TPO (rhTPO, R&D) (from UniProt P40225 22-353) (ligand)
 | 61 pM | VB22B Diabody (scFv) scFv: QVQLQQSGPELVKPGASVKISCKASGYAFTNSWMNWVKQRPGKGLEWIGRIYPGDGETIYNGKFRVKATLTADKSSSTAYMDISSLTSEDSAVYFCARGYDDYSFAYWGQGTLVTVSAGGGGSDIVMTQAAPSIPVTPGESVSISCRSSKSLLHSNGNTYLYWFLQRPGQSPQLLIYRMSNLASGVPDRFSGSGSGTAFTLRISRVEAEDVGVYYCMQHIEYPFTFGSGTKLEIK

More lines, now with the values behind:

Molecule | BaF-human Mpl EC50 (cell proliferation, WST-8) [1] | TPO-like agonist activity, BaF-human Mpl EC50 (cell proliferation, WST-8) [2]
VB22B sc(Fv)2 (scFv) scFv: QVQLQQSGPELVKPGASVKISCKASGYAFTNSWMNWVKQRPGKGLEWIGRIYPGDGETIYNGKFRVKATLTADKSSSTAYMDISSLTSEDSAVYFCARGYDDYSFAYWGQGTLVTVSAGGGGSGGGGSGGGGSDIVMTQAAPSIPVTPGESVSISCRSSKSLLHSNGNTYLYWFLQRPGQSPQLLIYRMSNLASGVPDRFSGSGSGTAFTLRISRVEAEDVGVYYCMQHIEYPFTFGSGTKLEIKGGGGSGGGGSGGGGSQVQLQQSGPELVKPGASVKISCKASGYAFTNSWMNWVKQRPGKGLEWIGRIYPGDGETIYNGKFRVKATLTADKSSSTAYMDISSLTSEDSAVYFCARGYDDYSFAYWGQGTLVTVSAGGGGSGGGGSGGGGSDIVMTQAAPSIPVTPGESVSISCRSSKSLLHSNGNTYLYWFLQRPGQSPQLLIYRMSNLASGVPDRFSGSGSGTAFTLRISRVEAEDVGVYYCMQHIEYPFTFGSGTKLEIK |  | 27 pM
anti-human Mpl antibody VB22B IgG (antibody, V domains shown) VH: QVQLQQSGPELVKPGASVKISCKASGYAFTNSWMNWVKQRPGKGLEWIGRIYPGDGETIYNGKFRVKATLTADKSSSTAYMDISSLTSEDSAVYFCARGYDDYSFAYWGQGTLVTVSA VL: DIVMTQAAPSIPVTPGESVSISCRSSKSLLHSNGNTYLYWFLQRPGQSPQLLIYRMSNLASGVPDRFSGSGSGTAFTLRISRVEAEDVGVYYCMQHIEYPFTFGSGTKLEIK |  | > 30000 pM
